Measured values published in IntAct's records for PubMed 23230146.

B1: Autophagy-related protein 18 (Saccharomyces cerevisiae), P43601 (parent)
chain: MSDSSPTINFINFNQTGTCISLGTSKGFKIFNCEPFGKFYSEDSGGYAIVEMLFSTSLLALVGIGDQPALSPRRLRIINTKKHSIICEVTFPTSILSVKMNKSRLVVLLQEQIYIYDINTMRLLHTIETNPNPRGLMAMSPSVANSYLVYPSPPKVINSEIKAHATTNNITLSVGGNTETSFKRDQQDAGHSDISDLDQYSSFTKRDDADPTSSNGGNSSIIKNGDVIVFNLETLQPTMVIEAHKGEIAAMAISFDGTLMATASDKGTIIRVFDIETGDKIYQFRRGTYATRIYSISFSEDSQYLAVTGSSKTVHIFKLGHSMSNNKLDSDDSNMEEAAADDSSLDTTSIDALSDEENPTRLAREPYVDASRKTMGRMIRYSSQKLSRRAARTLGQIFPIKVTSLLESSRHFASLKLPVETNSHVMTISSIGSPIDIDTSEYPELFETGNSASTESYHEPVMKMVPIRVVSSDGYLYNFVMDPERGGDCLILSQYSILMD

Variants of: B1
Conditions: with atg2_yeast ATG2, P53855
Chain of atg2_yeast ATG2, P53855 (P53855 whole entry): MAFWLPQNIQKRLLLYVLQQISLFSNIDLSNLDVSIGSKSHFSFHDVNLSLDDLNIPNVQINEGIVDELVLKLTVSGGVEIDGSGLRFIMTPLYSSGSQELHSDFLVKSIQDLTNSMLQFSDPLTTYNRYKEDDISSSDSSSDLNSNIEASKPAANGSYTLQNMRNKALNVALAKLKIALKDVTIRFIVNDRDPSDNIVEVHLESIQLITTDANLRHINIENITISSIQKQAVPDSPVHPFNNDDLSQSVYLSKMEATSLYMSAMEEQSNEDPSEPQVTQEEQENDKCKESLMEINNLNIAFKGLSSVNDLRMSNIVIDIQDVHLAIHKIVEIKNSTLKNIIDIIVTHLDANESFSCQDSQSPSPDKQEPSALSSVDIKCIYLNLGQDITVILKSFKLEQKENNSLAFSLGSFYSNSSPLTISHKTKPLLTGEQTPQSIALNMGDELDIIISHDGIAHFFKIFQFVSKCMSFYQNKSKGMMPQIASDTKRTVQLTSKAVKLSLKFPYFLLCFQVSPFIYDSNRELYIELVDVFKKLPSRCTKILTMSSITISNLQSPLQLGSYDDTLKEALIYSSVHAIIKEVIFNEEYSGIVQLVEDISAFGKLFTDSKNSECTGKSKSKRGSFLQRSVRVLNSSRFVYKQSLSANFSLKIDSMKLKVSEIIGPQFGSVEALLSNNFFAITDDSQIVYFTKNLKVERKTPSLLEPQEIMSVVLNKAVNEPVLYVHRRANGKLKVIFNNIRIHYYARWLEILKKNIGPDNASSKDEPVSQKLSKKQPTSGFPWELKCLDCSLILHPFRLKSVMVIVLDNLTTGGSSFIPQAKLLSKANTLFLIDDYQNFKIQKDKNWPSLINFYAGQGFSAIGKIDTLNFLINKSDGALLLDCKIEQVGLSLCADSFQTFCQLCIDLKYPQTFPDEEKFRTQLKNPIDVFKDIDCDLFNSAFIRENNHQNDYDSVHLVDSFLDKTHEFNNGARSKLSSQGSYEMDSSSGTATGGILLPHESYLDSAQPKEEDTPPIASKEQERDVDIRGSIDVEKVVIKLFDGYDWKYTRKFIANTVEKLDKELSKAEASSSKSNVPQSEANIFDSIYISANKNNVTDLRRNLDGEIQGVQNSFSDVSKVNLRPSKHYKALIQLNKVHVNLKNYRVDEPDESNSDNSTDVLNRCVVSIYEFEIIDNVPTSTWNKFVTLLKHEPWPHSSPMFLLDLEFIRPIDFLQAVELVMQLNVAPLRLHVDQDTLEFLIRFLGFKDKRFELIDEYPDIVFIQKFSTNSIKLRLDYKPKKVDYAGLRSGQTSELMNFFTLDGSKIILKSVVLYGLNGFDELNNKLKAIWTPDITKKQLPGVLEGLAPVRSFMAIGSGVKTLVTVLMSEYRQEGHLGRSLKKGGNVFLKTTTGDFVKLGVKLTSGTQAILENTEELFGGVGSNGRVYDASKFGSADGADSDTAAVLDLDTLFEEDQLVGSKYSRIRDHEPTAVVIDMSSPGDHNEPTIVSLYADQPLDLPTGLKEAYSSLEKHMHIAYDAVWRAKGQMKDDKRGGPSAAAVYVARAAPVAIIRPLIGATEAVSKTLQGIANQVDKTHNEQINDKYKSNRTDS

effect of a mutation on the interaction | Variant
decreasing interaction strength | T90A;F91A;P92A;T93A;S94A

Variants of: B1
Conditions: with atg2_yeast ATG2, P53855
Remark: another data set of the same source

effect of a mutation on the interaction | Variant
disrupting interaction strength | R285A;R286A

Variants of: B1
Conditions: with atg2_yeast ATG2, P53855
Remark: another data set of the same source

effect of a mutation on the interaction | Variant
disrupting interaction strength | E42A;D43A;S44A;Y47A;T90A;F91A;P92A;T93A;S94A
